{"source": "patent US20250269047A1", "about": "(MABWELL SHANGHAI BIOSCIENCE, published 2025)", "binders": {"B1": {"name": "ch9B11 (antibody, human IgG1, V domains shown)", "VH": "EVQLQQSGPELVRPGVSVKISCKGSGYSFTDYAIHWVKQSHAMSLEWIGIINTYYGNTNYNQKFKGKATMTVDKSSSTAYMELARLTSADSAIYYCARSTTTATFYWYFDVWGAGTTVSVSS", "VL": "DIVLTQSPVTLSVTPGDSVSLSCRASQSINNNLHWYQQKPHESPRLLIKYASQSISGIPSRFSGSGSGTDFTLSFNSVETEDFGMYFCQQSHSWPYTFGGGTKLEIK", "notes": "also called chimeric antibody 9B11"}, "B2": {"name": "ch17A3 (antibody, human IgG1, V domains shown)", "VH": "QVQLQQSGPELVRPGVSVKISCKGSGYTFTDYALHWVKQSHAKSPQWIGLINTYSSNTNYNQKFKDKATMTVDKSSSTAYMELARLTSEDSAIYYCARGITAVVGTRYYAMDYWGQGTSVTVSS", "VL": "NIVLTQSPTTLSVTPGDTVSLSCRASQSISNNLHWYQQRSHESPRLIIKYTSQNISGIPSRFSGSGSGTDFTLSINSVETEDFGMYFCQQSYSWPLTFGAGTKLELKR", "notes": "also called chimeric antibody 17A3"}, "B3": {"name": "ch10B4 (antibody, human IgG1, V domains shown)", "VH": "EVQLQQSGPELVKPGASVKISCKTSGYTFTEYIMHWVKQSHGKSLEWIGGINPNNGGTTYNQKFKGKATLTVDKSSSTAYMELRSLTSEDSAVYYCARKGKDYFDWYFDVWGAGTTVTVSS", "VL": "QIVLTQSPTIMSASPGEKVTMTCSASSSVSYMHWYQQKSGTSPKRWIYDTSKLASGVPARFSGSGSGTSYSLTISSMEAEDAATYYCQQWSSNPLTFGAGTKLELK", "notes": "also called chimeric antibody 10B4"}, "B4": {"name": "hz9B11-9 (antibody, human IgG1, kappa)", "heavy": "not shown", "light": "EIVLTQSPGTLSLSPGERATLSCRASQSINNNLHWYQQKPGQAPRLLIKYASQSISGIPDRFSGSGSGTDFTLTISRLEPEDFAVYFCQQSHSWPYTFGQGTKLEIKRTVAAPSVFIFPPSDEQLKSGTASVVCLLNNFYPREAKVQWKVDNALQSGNSQESVTEQDSKDSTYSLSSTLTLSKADYEKHKVYACEVTHQGLSSPVTKSFNRGEC", "notes": "hz9B11_VH1 + hz9B11_VL5; human IgG1, kappa"}, "B5": {"name": "hz9B11-10 (antibody, human IgG1, kappa)", "heavy": "not shown", "light": "EIVLTQSPGTLSLSPGERATLSCRASQSINNNLHWYQQKPGQAPRLLIKYASQSISGIPDRFSGSGSGTDFTLTISRLEPEDFAVYFCQQSHSWPYTFGQGTKLEIKRTVAAPSVFIFPPSDEQLKSGTASVVCLLNNFYPREAKVQWKVDNALQSGNSQESVTEQDSKDSTYSLSSTLTLSKADYEKHKVYACEVTHQGLSSPVTKSFNRGEC", "notes": "hz9B11_VH2 + hz9B11_VL5; human IgG1, kappa"}, "B6": {"name": "hz9B11-3 (antibody, human IgG1, kappa)", "heavy": "not shown", "light": "EIVLTQSPDFQSVTPKEKVTITCRASQSINNNLHWYQQKPDQSPKLLIKYASQSISGVPSRFSGSGSGTDFTLTINSLEAEDAATYYCQQSHSWPYTFGQGTKLEIKRTVAAPSVFIFPPSDEQLKSGTASVVCLLNNFYPREAKVQWKVDNALQSGNSQESVTEQDSKDSTYSLSSTLTLSKADYEKHKVYACEVTHQGLSSPVTKSFNRGEC", "notes": "hz9B11_VH1 + hz9B11_VL2; human IgG1, kappa"}, "B7": {"name": "hz9B11-4 (antibody, human IgG1, kappa)", "heavy": "not shown", "light": "EIVLTQSPDFQSVTPKEKVTITCRASQSINNNLHWYQQKPDQSPKLLIKYASQSISGVPSRFSGSGSGTDFTLTINSLEAEDAATYYCQQSHSWPYTFGQGTKLEIKRTVAAPSVFIFPPSDEQLKSGTASVVCLLNNFYPREAKVQWKVDNALQSGNSQESVTEQDSKDSTYSLSSTLTLSKADYEKHKVYACEVTHQGLSSPVTKSFNRGEC", "notes": "hz9B11_VH2 + hz9B11_VL2; human IgG1, kappa"}, "B8": {"name": "hz17A3-20 (antibody, human IgG1, kappa, V domains shown)", "VH": "EVQLVQSGAEVKKPGASVKVSCKASGYTFTDYALHWVRQAPGQGLEWMGLINTYSSNTNYNQKFKDRVTMTRDTSISTAYMELSRLRSEDTAVYYCARGITAVVGTRYYAMDYWGQGTLVTVSS", "VL": "EIVLTQSPDFQSVTPKEKVTITCRASQSISNNLHWYQQKPDQSPKLLIKYTSQNISGVPSRFSGSGSGTDFTLTINSLEAEDAATYYCQQSYSWPLTFGGGTKVEIKR", "notes": "hz17A3_VH3 + hz17A3_VL8; human IgG1, kappa"}, "B9": {"name": "hz17A3-25 (antibody, human IgG1, kappa, V domains shown)", "VH": "EVQLVQSGAEVKKPGASVKVSCKASGYTFTDYALHWVRQAPGQGLEWMGLINTYSSSTNYNQKFKDRVTMTRDTSISTAYMELSRLRSEDTAVYYCARGITAVVGTRYYAMDYWGQGTLVTVSS", "VL": "EIVLTQSPDFQSVTPKEKVTITCRASQSISNNLHWYQQKPDQSPKLLIYYTSQNISGVPSRFSGSGSGTDFTLTINSLEAEDAATYFCQQSYSWPLTFGGGTKVEIKR", "notes": "hz17A3_VH5 + hz17A3_VL9; human IgG1, kappa"}, "B10": {"name": "hz17A3-3 (antibody, human IgG1, kappa, V domains shown)", "VH": "QVQLVQSGAEVKKPGASVKVSCKASGYTFTDYALHWVRQAPGQGLEWMGLINTYSSNTNYNQKFKDRVTMTRDTSISTAYMELSRLRSDDTAVYYCARGITAVVGTRYYAMDYWGQGTLVTVSS", "VL": "EIVLTQSPDFQSVTPKEKVTITCRASQSISNNLHWYQQKPDQSPKLLIYYTSQNISGVPSRFSGSGSGTDFTLTINSLEAEDAATYYCQQSYSWPLTFGGGTKVEIKR", "notes": "hz17A3_VH1 + hz17A3_VL2; human IgG1, kappa"}, "B11": {"name": "hz17A3-4 (antibody, human IgG1, kappa, V domains shown)", "VH": "QVQLVQSGAEVKKPGASVKVSCKASGYTFTDYALHWVRQAPGQGLEWIGLINTYSSNTNYNQKFKDRVTMTRDTSISTAYMELSRLRSDDTAVYYCARGITAVVGTRYYAMDYWGQGTLVTVSS", "VL": "EIVLTQSPDFQSVTPKEKVTITCRASQSISNNLHWYQQKPDQSPKLLIYYTSQNISGVPSRFSGSGSGTDFTLTINSLEAEDAATYYCQQSYSWPLTFGGGTKVEIKR", "notes": "hz17A3_VH2 + hz17A3_VL2; human IgG1, kappa"}, "B12": {"name": "hz17A3-21 (antibody, human IgG1, kappa, V domains shown)", "VH": "EVQLVQSGAEVKKPGASVKVSCKASGYTFTDYALHWVRQAPGQGLEWMGLISTYSSNTNYNQKFKDRVTMTRDTSISTAYMELSRLRSEDTAVYYCARGITAVVGTRYYAMDYWGQGTLVTVSS", "VL": "EIVLTQSPDFQSVTPKEKVTITCRASQSISNNLHWYQQKPDQSPKLLIKYTSQNISGVPSRFSGSGSGTDFTLTINSLEAEDAATYYCQQSYSWPLTFGGGTKVEIKR", "notes": "hz17A3_VH4 + hz17A3_VL8; human IgG1, kappa"}, "B13": {"name": "hz17A3-22 (antibody, human IgG1, kappa, V domains shown)", "VH": "EVQLVQSGAEVKKPGASVKVSCKASGYTFTDYALHWVRQAPGQGLEWMGLINTYSSSTNYNQKFKDRVTMTRDTSISTAYMELSRLRSEDTAVYYCARGITAVVGTRYYAMDYWGQGTLVTVSS", "VL": "EIVLTQSPDFQSVTPKEKVTITCRASQSISNNLHWYQQKPDQSPKLLIKYTSQNISGVPSRFSGSGSGTDFTLTINSLEAEDAATYYCQQSYSWPLTFGGGTKVEIKR", "notes": "hz17A3_VH5 + hz17A3_VL8; human IgG1, kappa"}, "B14": {"name": "hz17A3-24 (antibody, human IgG1, kappa, V domains shown)", "VH": "EVQLVQSGAEVKKPGASVKVSCKASGYTFTDYALHWVRQAPGQGLEWMGLISTYSSNTNYNQKFKDRVTMTRDTSISTAYMELSRLRSEDTAVYYCARGITAVVGTRYYAMDYWGQGTLVTVSS", "VL": "EIVLTQSPDFQSVTPKEKVTITCRASQSISNNLHWYQQKPDQSPKLLIYYTSQNISGVPSRFSGSGSGTDFTLTINSLEAEDAATYFCQQSYSWPLTFGGGTKVEIKR", "notes": "hz17A3_VH4 + hz17A3_VL9; human IgG1, kappa"}, "B15": {"name": "hz17A3-23 (antibody, human IgG1, kappa, V domains shown)", "VH": "EVQLVQSGAEVKKPGASVKVSCKASGYTFTDYALHWVRQAPGQGLEWMGLINTYSSNTNYNQKFKDRVTMTRDTSISTAYMELSRLRSEDTAVYYCARGITAVVGTRYYAMDYWGQGTLVTVSS", "VL": "EIVLTQSPDFQSVTPKEKVTITCRASQSISNNLHWYQQKPDQSPKLLIYYTSQNISGVPSRFSGSGSGTDFTLTINSLEAEDAATYFCQQSYSWPLTFGGGTKVEIKR", "notes": "hz17A3_VH3 + hz17A3_VL9; human IgG1, kappa"}}, "data": [{"target": "T1, recombinant human B7-H3-his extracellular domain protein (UniProtKB-Q5ZPR3, 1 aa-461 aa) (human, UniProt Q5ZPR3 29-461)", "T1 construct": "range 1-461; The printed range 1-461 starts at residue 1 and so includes the signal peptide; also called Human B7-H3 ECD; recombinant human B7-H3-his protein; not shown: C-terminal his tag", "T1 sequence (looked up)": "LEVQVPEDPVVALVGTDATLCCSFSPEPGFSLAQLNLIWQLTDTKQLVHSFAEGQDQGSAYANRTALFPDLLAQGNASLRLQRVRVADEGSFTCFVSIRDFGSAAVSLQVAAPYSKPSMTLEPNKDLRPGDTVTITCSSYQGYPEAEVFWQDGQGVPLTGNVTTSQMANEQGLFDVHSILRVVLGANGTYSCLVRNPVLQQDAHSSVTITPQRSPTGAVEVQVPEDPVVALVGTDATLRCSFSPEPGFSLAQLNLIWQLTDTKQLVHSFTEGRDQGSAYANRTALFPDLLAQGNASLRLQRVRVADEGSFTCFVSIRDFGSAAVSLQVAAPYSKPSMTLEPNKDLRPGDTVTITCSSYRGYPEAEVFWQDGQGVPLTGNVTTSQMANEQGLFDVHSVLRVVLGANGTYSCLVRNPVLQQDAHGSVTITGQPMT", "test": "BLI (Octet QKe), antibody on AHC biosensor, B7-H3-his 60 nM in solution", "description": "Affinities of the antibodies were determined by an assay including capturing Fc fragments of the antibodies with anti-human IgG Fc capture (AHC) biosensors using Octet QKe system instrument from Fortebio. For the assay, each of the chimeric antibodies ch9B11, ch10B4, ch17A3 and the control antibody Enoblituzumab was diluted to 4 μg/ml in PBS, and was allowed to flow through the surface of an AHC biosensor (Cat.: 18-0015, PALL) for 120 s. Recombinant human B7-H3 extracellular domain protein (Accession No.: UniProtKB-Q5ZPR3, 1 aa-461 aa, C-his tag) (60 nM) was used as a mobile phase. The association time was 300 s and the dissociation time was 300 s. When the assay was finished, data from which the response values of blank control had been deducted were fitted to a 1:1 Langmuir binding model using software, and then kinetic constants for antigen-antibody binding were calculated.", "units": {"Kd": "nM", "koff": "s⁻¹", "kon": "M⁻¹ s⁻¹"}, "values": [{"binder": "B1", "Kd": 0.12, "koff": 0.000141, "kon": "1.17e+06"}, {"binder": "B2", "Kd": 0.269, "koff": 0.000259, "kon": 965000}, {"binder": "B3", "Kd": 0.435, "koff": 0.000262, "kon": 602000}]}, {"target": "T1, recombinant human B7-H3-his …", "test": "BLI (Octet QKe), antibody on AHC biosensor, B7-H3-his 60 nM in solution", "remark": "another data set of the same source", "description": "According to the mutation designs, site-directed mutagenesis was performed in the plasmids expressing the humanized light chains and heavy chains respectively using StarMut gene Site-directed Mutagenesis Kit (Cat.: T111-01, GenStar). The mutated plasmids were transformed into E. coli cells for expansion, and plasmids expressing the humanized and mutated light and heavy chains based on the antibodies 9B11, 10B4, and 17A3 were obtained. […] 5-6 days after cell transfection, culture supernatants were purified through ProA affinity chromatography column to obtain different humanized antibodies. Affinities of the antibodies were determined by an assay including capturing Fc fragments of the antibodies with anti-human IgG Fc capture (AHC) biosensors using Octet QKe system instrument from Fortebio. For the assay, each of the humanized antibodies and the chimeric antibodies based on the antibodies 9B11, 10B4, and 17A3 was diluted to 4 μg/ml in PBS, and was allowed to flow through the surface of an AHC biosensor (Cat.: 18-0015, PALL) for 300 s. Recombinant human B7-H3-his protein (Accession No.: UniProtKB-Q5ZPR3, 1 aa-461 aa) was used as a mobile phase, and its concentration was 60 nM. The association time was 100 s and the dissociation time was 300 s. When the assay was finished, data from which the response values of blank control had been deducted were fitted to a 1:1 Langmuir binding model using software, and then kinetic constants for antigen-antibody binding were calculated. The light and heavy chain combinations and the affinity constant KD values of the humanized and the mutant antibodies based on the antibodies 9B11, 10B4, and 17A3 are shown in Tables 6-8 respectively.", "units": {"Kd": "nM"}, "values": [{"binder": "B1", "Kd": 0.0998}, {"binder": "B4", "Kd": 0.107}, {"binder": "B5", "Kd": 0.139}, {"binder": "B2", "Kd": 0.367}, {"binder": "B6", "Kd": 0.118}, {"binder": "B7", "Kd": 0.141}, {"binder": "B8", "Kd": 0.289}, {"binder": "B9", "Kd": 4.88}, {"binder": "B10", "Kd": 0.598}, {"binder": "B11", "Kd": 0.899}, {"binder": "B12", "Kd": 0.433}, {"binder": "B13", "Kd": 0.479}, {"binder": "B14", "Kd": 1.91}, {"binder": "B15", "Kd": 2.58}, {"binder": "B3", "Kd": 0.355}]}]}
